Experiments:
[1] = molecular target: Calmodulin (Homo sapiens) (UniProt P0DP23); experiment: PIF-agarose affinity extraction of normal human liver lysate 3, LC-MS/MS
[2] = molecular target: Calreticulin (Homo sapiens) (UniProt P27797); experiment: as above
[3] = molecular target: 78 kDa glucose-regulated protein (Homo sapiens) (UniProt P11021); experiment: as above
[4] = molecular target: Parathymosin (Homo sapiens) (UniProt P20962); experiment: as above
[5] = molecular target: Peroxiredoxin-1 (Homo sapiens) (UniProt Q06830); experiment: as above
[6] = molecular target: Endoplasmin (Homo sapiens) (UniProt P14625); experiment: as above
[7] = molecular target: Alpha-actinin-4 (Homo sapiens) (UniProt O43707); experiment: as above
[8] = molecular target: Alcohol dehydrogenase 1B (Homo sapiens) (UniProt P00325); experiment: as above
[9] = molecular target: Membrane-associated progesterone receptor component 1 (Homo sapiens) (UniProt O00264); experiment: as above
[10] = molecular target: Protein disulfide-isomerase A4 (Homo sapiens) (UniProt P13667); experiment: as above
[11] = molecular target: Tropomyosin alpha-4 chain (Homo sapiens) (UniProt P67936); experiment: as above
[12] = molecular target: Hepatoma-derived growth factor (Homo sapiens) (UniProt P51858); experiment: as above
Vimentin (Homo sapiens) [13] = molecular target: Vimentin (Homo sapiens) (UniProt P08670); experiment: as above
[14] = molecular target: Enoyl-CoA hydratase domain-containing protein 2, mitochondrial (Homo sapiens) (UniProt Q86YB7); experiment: as above
[15] = molecular target: Alcohol dehydrogenase 4 (Homo sapiens) (UniProt P08319); experiment: as above
[16] = molecular target: 14-3-3 protein epsilon (Homo sapiens) (UniProt P62258); experiment: as above
[17] = molecular target: Cytochrome b5 (Homo sapiens) (UniProt P00167); experiment: as above
[18] = molecular target: Delta-aminolevulinic acid dehydratase (Homo sapiens) (UniProt P13716); experiment: as above
[19] = molecular target: Transitional endoplasmic reticulum ATPase (Homo sapiens) (UniProt P55072); experiment: as above
[20] = molecular target: Protein disulfide-isomerase A3 (Homo sapiens) (UniProt P30101); experiment: as above
[21] = molecular target: Cytosolic 10-formyltetrahydrofolate dehydrogenase (Homo sapiens) (UniProt O75891); experiment: as above
[22] = molecular target: Protein disulfide-isomerase (Homo sapiens) (UniProt P07237); experiment: as above
[23] = molecular target: Alcohol dehydrogenase 1A (Homo sapiens) (UniProt P07327); experiment: as above
[24] = molecular target: Cytochrome b-c1 complex subunit 6, mitochondrial (Homo sapiens) (UniProt P07919); experiment: as above
[25] = molecular target: Activated RNA polymerase II transcriptional coactivator p15 (Homo sapiens) (UniProt P53999); experiment: as above
[26] = molecular target: Calmodulin (Homo sapiens) (UniProt P0DP23); experiment: PIF-agarose affinity extraction of normal human liver lysate 2, LC-MS/MS
[27] = molecular target: Calreticulin (Homo sapiens) (UniProt P27797); experiment: as above
[28] = molecular target: 78 kDa glucose-regulated protein (Homo sapiens) (UniProt P11021); experiment: as above
[29] = molecular target: Peroxiredoxin-1 (Homo sapiens) (UniProt Q06830); experiment: as above
[30] = molecular target: Alcohol dehydrogenase 1B (Homo sapiens) (UniProt P00325); experiment: as above
[31] = molecular target: Membrane-associated progesterone receptor component 1 (Homo sapiens) (UniProt O00264); experiment: as above
Vimentin (Homo sapiens) [32] = molecular target: Vimentin (Homo sapiens) (UniProt P08670); experiment: as above
[33] = molecular target: Enoyl-CoA hydratase domain-containing protein 2, mitochondrial (Homo sapiens) (UniProt Q86YB7); experiment: as above
[34] = molecular target: Alcohol dehydrogenase 4 (Homo sapiens) (UniProt P08319); experiment: as above
[35] = molecular target: 14-3-3 protein epsilon (Homo sapiens) (UniProt P62258); experiment: as above
[36] = molecular target: Cytochrome b5 (Homo sapiens) (UniProt P00167); experiment: as above
[37] = molecular target: Transitional endoplasmic reticulum ATPase (Homo sapiens) (UniProt P55072); experiment: as above
[38] = molecular target: Activated RNA polymerase II transcriptional coactivator p15 (Homo sapiens) (UniProt P53999); experiment: as above

Sequence of Peroxiredoxin-1 (Homo sapiens) (Q06830 2-199 limits assumed): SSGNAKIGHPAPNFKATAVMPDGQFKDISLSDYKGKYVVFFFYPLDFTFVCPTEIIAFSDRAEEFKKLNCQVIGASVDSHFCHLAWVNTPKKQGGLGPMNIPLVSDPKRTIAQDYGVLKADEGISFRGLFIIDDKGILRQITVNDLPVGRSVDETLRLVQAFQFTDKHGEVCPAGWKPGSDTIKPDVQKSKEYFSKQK
Sequence of Vimentin (Homo sapiens) (P08670 2-466 limits assumed): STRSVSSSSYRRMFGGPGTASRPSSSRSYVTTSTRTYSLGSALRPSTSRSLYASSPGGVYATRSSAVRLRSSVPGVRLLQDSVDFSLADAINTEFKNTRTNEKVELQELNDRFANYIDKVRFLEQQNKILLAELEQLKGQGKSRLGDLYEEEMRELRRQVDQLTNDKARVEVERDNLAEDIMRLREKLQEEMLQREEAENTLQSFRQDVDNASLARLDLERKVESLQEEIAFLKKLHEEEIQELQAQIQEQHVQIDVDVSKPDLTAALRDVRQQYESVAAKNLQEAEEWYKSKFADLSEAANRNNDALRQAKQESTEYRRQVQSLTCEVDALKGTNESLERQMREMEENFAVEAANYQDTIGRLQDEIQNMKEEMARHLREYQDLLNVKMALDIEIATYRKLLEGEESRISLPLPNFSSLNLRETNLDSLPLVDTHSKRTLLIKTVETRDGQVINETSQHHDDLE
Sequence of Calreticulin (Homo sapiens) (P27797 18-417 limits assumed): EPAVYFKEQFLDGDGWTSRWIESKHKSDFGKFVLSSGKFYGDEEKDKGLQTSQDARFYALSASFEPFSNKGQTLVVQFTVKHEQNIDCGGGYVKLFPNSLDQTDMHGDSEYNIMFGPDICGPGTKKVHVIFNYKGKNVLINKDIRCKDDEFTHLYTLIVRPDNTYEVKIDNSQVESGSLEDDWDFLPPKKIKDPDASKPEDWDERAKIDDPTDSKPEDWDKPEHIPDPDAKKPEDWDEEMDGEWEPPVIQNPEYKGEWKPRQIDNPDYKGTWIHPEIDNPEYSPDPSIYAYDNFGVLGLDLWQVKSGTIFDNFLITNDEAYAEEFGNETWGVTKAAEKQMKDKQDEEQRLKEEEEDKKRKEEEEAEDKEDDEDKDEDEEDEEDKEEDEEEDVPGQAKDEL
Sequence of Alcohol dehydrogenase 4 (Homo sapiens) (P08319 whole entry): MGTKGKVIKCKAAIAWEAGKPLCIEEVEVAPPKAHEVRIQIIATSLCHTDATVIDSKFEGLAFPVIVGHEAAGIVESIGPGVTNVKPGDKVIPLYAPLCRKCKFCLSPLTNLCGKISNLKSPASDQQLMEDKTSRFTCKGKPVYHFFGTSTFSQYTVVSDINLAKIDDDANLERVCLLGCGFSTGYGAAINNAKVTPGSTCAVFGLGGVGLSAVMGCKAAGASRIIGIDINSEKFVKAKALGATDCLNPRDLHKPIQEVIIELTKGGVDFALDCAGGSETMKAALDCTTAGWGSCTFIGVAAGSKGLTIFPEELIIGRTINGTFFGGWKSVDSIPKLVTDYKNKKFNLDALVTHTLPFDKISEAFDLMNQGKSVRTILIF
Sequence of 14-3-3 protein epsilon (Homo sapiens) (P62258 whole entry): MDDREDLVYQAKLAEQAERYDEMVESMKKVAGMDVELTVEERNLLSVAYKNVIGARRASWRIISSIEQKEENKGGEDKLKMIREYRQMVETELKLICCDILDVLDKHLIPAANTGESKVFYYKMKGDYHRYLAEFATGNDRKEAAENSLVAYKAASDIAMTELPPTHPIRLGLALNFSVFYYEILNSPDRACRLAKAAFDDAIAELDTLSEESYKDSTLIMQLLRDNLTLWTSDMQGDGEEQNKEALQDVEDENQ
Sequence of Transitional endoplasmic reticulum ATPase (Homo sapiens) (P55072 2-806 limits assumed): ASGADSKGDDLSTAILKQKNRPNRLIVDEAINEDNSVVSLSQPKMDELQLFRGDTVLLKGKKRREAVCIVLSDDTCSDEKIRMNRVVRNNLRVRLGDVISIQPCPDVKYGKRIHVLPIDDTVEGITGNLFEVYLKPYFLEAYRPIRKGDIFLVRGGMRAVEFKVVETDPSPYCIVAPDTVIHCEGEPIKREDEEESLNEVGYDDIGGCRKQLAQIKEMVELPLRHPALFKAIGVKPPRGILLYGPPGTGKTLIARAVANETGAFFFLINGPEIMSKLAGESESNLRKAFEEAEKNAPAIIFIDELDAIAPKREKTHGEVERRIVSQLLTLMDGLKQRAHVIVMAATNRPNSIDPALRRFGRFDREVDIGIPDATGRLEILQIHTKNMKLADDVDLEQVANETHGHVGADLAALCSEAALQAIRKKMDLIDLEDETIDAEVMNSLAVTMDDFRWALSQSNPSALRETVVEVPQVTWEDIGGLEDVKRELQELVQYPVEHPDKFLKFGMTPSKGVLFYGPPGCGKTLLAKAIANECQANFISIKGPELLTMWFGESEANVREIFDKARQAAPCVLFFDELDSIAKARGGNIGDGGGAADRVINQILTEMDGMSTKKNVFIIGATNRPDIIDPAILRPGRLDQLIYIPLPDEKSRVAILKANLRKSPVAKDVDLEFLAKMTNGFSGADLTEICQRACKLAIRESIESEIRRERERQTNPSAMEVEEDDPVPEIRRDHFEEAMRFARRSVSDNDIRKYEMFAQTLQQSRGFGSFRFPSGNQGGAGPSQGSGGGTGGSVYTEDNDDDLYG
Sequence of 78 kDa glucose-regulated protein (Homo sapiens) (P11021 19-654 limits assumed): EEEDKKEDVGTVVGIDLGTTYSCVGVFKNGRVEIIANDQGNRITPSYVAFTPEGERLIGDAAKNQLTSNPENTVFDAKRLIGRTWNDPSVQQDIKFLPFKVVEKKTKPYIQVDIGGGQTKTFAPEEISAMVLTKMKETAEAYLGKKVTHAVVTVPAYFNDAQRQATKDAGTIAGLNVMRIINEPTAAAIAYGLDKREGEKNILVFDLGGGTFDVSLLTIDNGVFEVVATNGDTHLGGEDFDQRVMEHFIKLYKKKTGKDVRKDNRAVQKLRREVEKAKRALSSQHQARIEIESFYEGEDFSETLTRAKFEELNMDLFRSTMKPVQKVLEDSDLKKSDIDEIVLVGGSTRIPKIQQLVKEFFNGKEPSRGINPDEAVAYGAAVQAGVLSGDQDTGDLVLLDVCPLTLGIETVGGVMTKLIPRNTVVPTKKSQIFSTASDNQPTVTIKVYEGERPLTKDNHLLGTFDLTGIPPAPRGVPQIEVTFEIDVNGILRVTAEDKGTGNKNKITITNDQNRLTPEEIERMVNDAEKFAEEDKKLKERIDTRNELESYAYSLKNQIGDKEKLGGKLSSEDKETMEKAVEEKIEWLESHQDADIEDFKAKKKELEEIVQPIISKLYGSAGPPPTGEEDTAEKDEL
Sequence of Enoyl-CoA hydratase domain-containing protein 2, mitochondrial (Homo sapiens) (Q86YB7 36-292 limits assumed): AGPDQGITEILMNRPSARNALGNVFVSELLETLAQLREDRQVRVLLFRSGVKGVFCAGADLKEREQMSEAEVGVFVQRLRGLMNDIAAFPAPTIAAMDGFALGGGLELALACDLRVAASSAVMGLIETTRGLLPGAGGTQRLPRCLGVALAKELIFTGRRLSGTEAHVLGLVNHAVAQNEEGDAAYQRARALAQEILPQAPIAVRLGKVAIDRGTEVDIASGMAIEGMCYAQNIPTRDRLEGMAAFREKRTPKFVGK
Sequence of Cytochrome b5 (Homo sapiens) (P00167 2-134 limits assumed): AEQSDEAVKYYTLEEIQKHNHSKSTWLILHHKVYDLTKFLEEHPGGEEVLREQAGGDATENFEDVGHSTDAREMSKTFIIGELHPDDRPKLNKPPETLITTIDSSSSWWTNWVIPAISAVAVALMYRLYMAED
Sequence of Alcohol dehydrogenase 1B (Homo sapiens) (P00325 2-375 limits assumed): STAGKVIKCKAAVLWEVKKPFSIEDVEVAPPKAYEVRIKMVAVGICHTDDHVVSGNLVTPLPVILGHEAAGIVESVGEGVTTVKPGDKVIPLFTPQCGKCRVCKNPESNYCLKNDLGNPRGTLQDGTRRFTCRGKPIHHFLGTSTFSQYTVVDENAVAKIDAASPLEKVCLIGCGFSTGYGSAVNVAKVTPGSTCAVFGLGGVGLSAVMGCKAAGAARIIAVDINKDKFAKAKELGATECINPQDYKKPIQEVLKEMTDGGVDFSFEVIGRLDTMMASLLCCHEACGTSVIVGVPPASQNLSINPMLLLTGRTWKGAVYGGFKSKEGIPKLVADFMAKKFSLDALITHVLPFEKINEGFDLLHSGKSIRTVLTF
Sequence of Membrane-associated progesterone receptor component 1 (Homo sapiens) (O00264 whole entry): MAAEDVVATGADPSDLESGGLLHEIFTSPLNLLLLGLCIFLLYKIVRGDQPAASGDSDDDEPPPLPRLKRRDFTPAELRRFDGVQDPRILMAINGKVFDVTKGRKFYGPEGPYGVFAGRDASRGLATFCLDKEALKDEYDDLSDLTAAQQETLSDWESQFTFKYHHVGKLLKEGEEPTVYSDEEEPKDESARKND
Sequence of Protein disulfide-isomerase A4 (Homo sapiens) (P13667 21-645 limits assumed): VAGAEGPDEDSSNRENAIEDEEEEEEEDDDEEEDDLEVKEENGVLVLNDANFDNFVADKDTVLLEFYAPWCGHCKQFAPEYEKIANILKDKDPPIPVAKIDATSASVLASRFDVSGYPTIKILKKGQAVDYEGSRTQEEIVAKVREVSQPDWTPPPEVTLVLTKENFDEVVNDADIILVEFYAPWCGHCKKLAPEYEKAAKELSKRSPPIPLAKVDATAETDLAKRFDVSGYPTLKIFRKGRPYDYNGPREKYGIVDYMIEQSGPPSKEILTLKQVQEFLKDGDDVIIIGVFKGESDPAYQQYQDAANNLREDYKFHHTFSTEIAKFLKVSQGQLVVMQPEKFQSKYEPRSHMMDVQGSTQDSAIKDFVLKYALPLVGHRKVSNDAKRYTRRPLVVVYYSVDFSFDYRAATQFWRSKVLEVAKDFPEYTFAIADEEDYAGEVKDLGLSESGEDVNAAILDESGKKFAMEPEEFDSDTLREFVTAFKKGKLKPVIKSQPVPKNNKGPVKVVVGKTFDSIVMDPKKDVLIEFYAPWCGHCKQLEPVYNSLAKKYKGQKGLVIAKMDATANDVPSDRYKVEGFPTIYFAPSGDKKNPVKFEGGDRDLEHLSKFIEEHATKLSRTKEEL
Sequence of Parathymosin (Homo sapiens) (P20962 2-102 limits assumed): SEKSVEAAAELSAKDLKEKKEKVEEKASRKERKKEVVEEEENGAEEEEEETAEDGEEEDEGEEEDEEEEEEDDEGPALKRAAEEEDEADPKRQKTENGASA

sPIF-1(15) (peptide)
% Coverage of the unique peptides observed [1]: 46%
% Coverage of the unique peptides observed [2]: 70%
% Coverage of the unique peptides observed [3]: 48%
% Coverage of the unique peptides observed [4]: 82%
% Coverage of the unique peptides observed [5]: 29%
% Coverage of the unique peptides observed [6]: 43%
% Coverage of the unique peptides observed [7]: 19%
% Coverage of the unique peptides observed [8]: 66%
% Coverage of the unique peptides observed [9]: 46%
% Coverage of the unique peptides observed [10]: 51%
% Coverage of the unique peptides observed [11]: 40%
% Coverage of the unique peptides observed [12]: 52%
% Coverage of the unique peptides observed (Vimentin (Homo sapiens) [13]): 52%
% Coverage of the unique peptides observed [14]: 31%
% Coverage of the unique peptides observed [15]: 61%
% Coverage of the unique peptides observed [16]: 64%
% Coverage of the unique peptides observed [17]: 43%
% Coverage of the unique peptides observed [18]: 25%
% Coverage of the unique peptides observed [19]: 52%
% Coverage of the unique peptides observed [20]: 42%
% Coverage of the unique peptides observed [21]: 52%
% Coverage of the unique peptides observed [22]: 75%
% Coverage of the unique peptides observed [23]: 54%
% Coverage of the unique peptides observed [24]: 58%
% Coverage of the unique peptides observed [25]: 34%
% Coverage of the unique peptides observed [26]: 46%
% Coverage of the unique peptides observed [27]: 69%
% Coverage of the unique peptides observed [28]: 51%
% Coverage of the unique peptides observed [29]: 58%
% Coverage of the unique peptides observed [30]: 54%
% Coverage of the unique peptides observed [31]: 46%
% Coverage of the unique peptides observed (Vimentin (Homo sapiens) [32]): 49%
% Coverage of the unique peptides observed [33]: 42%
% Coverage of the unique peptides observed [34]: 52%
% Coverage of the unique peptides observed [35]: 71%
% Coverage of the unique peptides observed [36]: 56%
% Coverage of the unique peptides observed [37]: 51%
% Coverage of the unique peptides observed [38]: 44%
